Data set [1] addresses T1, AbdA (Hox);Exd/Hth-HM;Grh (Drosophila melanogaster?;Drosophila …, UniProt P29555;P40427;O46339;P13002 261-590;1-376;127-211;551-1333, ||). Kind of data set: EMSA; completely abolished in text; largely per legend; EMSA, 20 ul, 30 min, room temperature; 5X buffer as printed: 20% glycerol, 1 mg/ml BSA, 2.5 mM EDTA, '50mM 1M tris' pH 7.5, 50 mM KCl, 5 mM MgCl2, 2.5 mM DTT, 90 ug/ml poly(dI-dC); proteins 100-200 ng. The following applies: protein: recombinant;recombinant;recombinant; tags: 6xHis;6xHis;6xHis; copies: 1;1;1;2. Background: In EMSA bound probe runs differently from free probe, usually more slowly.
Target sequence in this assay (P29555 261-590, chain 1 of 2): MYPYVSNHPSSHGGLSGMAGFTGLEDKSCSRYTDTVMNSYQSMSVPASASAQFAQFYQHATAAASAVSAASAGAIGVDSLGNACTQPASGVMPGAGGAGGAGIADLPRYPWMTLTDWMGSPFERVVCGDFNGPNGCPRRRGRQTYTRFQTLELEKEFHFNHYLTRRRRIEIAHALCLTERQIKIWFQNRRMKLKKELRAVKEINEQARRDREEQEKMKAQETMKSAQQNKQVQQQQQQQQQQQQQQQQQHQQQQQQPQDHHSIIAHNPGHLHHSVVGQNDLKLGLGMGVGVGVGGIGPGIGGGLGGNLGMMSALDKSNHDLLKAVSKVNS
Target sequence in this assay (P13002 551-1333, chain 4 of 2): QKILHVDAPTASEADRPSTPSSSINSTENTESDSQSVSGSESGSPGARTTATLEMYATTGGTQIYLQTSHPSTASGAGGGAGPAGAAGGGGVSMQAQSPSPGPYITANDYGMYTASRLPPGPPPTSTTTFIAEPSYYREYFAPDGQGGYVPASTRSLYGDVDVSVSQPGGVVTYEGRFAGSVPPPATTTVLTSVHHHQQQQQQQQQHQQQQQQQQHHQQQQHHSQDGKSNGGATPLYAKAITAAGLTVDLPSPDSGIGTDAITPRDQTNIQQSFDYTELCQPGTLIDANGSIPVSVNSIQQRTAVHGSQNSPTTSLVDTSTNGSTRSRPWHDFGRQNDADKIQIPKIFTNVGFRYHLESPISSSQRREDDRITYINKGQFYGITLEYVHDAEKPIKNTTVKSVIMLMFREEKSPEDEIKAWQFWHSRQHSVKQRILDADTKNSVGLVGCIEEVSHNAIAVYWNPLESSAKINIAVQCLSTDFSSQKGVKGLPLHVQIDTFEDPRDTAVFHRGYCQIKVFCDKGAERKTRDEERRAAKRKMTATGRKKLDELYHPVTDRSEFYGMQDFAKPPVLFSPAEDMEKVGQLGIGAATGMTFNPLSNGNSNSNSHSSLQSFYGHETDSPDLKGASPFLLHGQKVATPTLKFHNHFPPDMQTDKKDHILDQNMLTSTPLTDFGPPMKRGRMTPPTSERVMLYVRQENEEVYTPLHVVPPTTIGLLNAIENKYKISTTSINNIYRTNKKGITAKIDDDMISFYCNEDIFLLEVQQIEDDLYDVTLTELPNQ

Data set [2] addresses T2, AbdA (Hox);Grh (Drosophila melanogaster?;Drosophila …, UniProt P29555;P13002 261-590;551-1333, |). Kind of data set: EMSA; EMSA, 20 ul, 30 min, room temperature; 5X buffer as printed: 20% glycerol, 1 mg/ml BSA, 2.5 mM EDTA, '50mM 1M tris' pH 7.5, 50 mM KCl, 5 mM MgCl2, 2.5 mM DTT, 90 ug/ml poly(dI-dC); proteins 100-200 ng. The following applies: protein: recombinant;recombinant; tags: 6xHis;6xHis; copies: 1;2.

Data set [3] addresses T3, AbdA (Hox) (UniProt P29555 261-590). The data set is described as above. Conditions: protein: recombinant; tags: 6xHis.
Another data set deals with AbdA (Hox);Exd/Hth-HM (Drosophila melanogaster?;Drosophila …, UniProt P29555;P40427;O46339 261-590;1-376;127-211, |). The description is as above. Conditions: protein: recombinant;recombinant; tags: 6xHis;6xHis; copies: 1;1;1.
A further data set addresses Grh (UniProt P13002 551-1333). Described as above. The following applies: protein: recombinant; tags: 6xHis; chain copies: 2.
A further data set concerns the target T4, Exd/Hth-HM (UniProt P40427;O46339 1-376;127-211).
T4 sequence 1: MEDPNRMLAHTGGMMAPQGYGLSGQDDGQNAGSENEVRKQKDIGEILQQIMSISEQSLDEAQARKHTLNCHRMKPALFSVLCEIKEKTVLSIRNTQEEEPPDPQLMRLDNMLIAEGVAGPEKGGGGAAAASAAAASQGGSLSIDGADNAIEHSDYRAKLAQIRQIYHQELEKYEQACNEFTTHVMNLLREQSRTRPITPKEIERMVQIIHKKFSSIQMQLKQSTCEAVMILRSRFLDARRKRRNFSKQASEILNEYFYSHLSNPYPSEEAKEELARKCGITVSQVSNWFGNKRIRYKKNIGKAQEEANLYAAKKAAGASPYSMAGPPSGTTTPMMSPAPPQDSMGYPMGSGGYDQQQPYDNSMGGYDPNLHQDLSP
T4 sequence 2: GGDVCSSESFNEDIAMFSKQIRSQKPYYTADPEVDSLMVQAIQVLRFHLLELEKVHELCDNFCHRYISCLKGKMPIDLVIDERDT
Kind of data set: EMSA; no significant binding; EMSA, 20 ul, 30 min, room temperature; 5X buffer as printed: 20% glycerol, 1 mg/ml BSA, 2.5 mM EDTA, '50mM 1M tris' pH 7.5, 50 mM KCl, 5 mM MgCl2, 2.5 mM DTT, 90 ug/ml poly(dI-dC); proteins 100-200 ng. Conditions: protein: recombinant; tags: 6xHis; copies: 1;1.

Data set [4] has as its target T3, AbdA (Hox). Described as above. The following applies: protein: recombinant; tags: 6xHis.
The target in data set [5] is T2, AbdA (Hox);Grh. Kind of data set: EMSA; 'compromised'; later 'abolished completely'; EMSA, 20 ul, 30 min, room temperature; 5X buffer as printed: 20% glycerol, 1 mg/ml BSA, 2.5 mM EDTA, '50mM 1M tris' pH 7.5, 50 mM KCl, 5 mM MgCl2, 2.5 mM DTT, 90 ug/ml poly(dI-dC); proteins 100-200 ng. Conditions: protein: recombinant;recombinant; tags: 6xHis;6xHis; copies: 1;2.
Data set [6] concerns the target T1, AbdA (Hox);Exd/Hth-HM;Grh. Kind of data set: EMSA; EMSA, 20 ul, 30 min, room temperature; 5X buffer as printed: 20% glycerol, 1 mg/ml BSA, 2.5 mM EDTA, '50mM 1M tris' pH 7.5, 50 mM KCl, 5 mM MgCl2, 2.5 mM DTT, 90 ug/ml poly(dI-dC); proteins 100-200 ng. The following applies: protein: recombinant;recombinant;recombinant; tags: 6xHis;6xHis;6xHis; copies: 1;1;1;2.
Target sequence in this assay (P29555 261-590, chain 1 of 4, one chain of several): as the sequence (P29555 261-590, chain 1 of 2) above
Target sequence in this assay (P13002 551-1333, chain 4 of 4, one chain of several): as the sequence (P13002 551-1333, chain 4 of 2) above

Chain of AbdA (Hox);Exd/Hth-HM (P29555 261-590, one chain of several): as the sequence (P29555 261-590, chain 1 of 2) above
Chain of Grh (P13002 551-1333): as the sequence (P13002 551-1333, chain 4 of 2) above
T3 sequence (P29555 261-590): as the sequence (P29555 261-590, chain 1 of 2) above
T2 sequence (P29555 261-590, chain 1 of 2): as above
T2 sequence (P13002 551-1333, chain 2 of 2): as the sequence (P13002 551-1333, chain 4 of 2) above

B1: motif-30 Hox2 mutant (dsDNA)
DNA 1: GAAACAGGATAACCAGGACTAATCC
DNA 2: GGATTAGTCCTGGTTATCCTGTTTC
For the molecule B1, the binding result is reported as “no binding” in data set [1]; “no binding” in the data set with AbdA (Hox);Grh [2]; “no binding” with AbdA (Hox) [3]; “no binding” with AbdA (Hox);Exd/Hth-HM; “binds” in the data set with Grh.

B2: motif-24 (dsDNA)
DNA 1: CGCTCATAAAGTTAACCAACGATTTCATTCCTAAAC
DNA 2: GTTTAGGAATGAAATCGTTGGTTAACTTTATGAGCG
For the molecule B2, the binding result in the data set with Exd/Hth-HM is listed as “no binding”; in the data set with AbdA (Hox) [4], “no binding”; with AbdA (Hox);Exd/Hth-HM, “binds”; with Grh it was “no binding”.

B3: motif-30 Grh1 mutant (dsDNA)
DNA 1: GAAACACGATAACCATAACTAATCC
DNA 2: GGATTAGTTATGGTTATCGTGTTTC
Take B3: the binding result in the data set with AbdA (Hox);Grh [5] is given as “no binding”; in data set [6], “no binding”; with AbdA (Hox);Exd/Hth-HM, “binds”.

The values are drawn from publication PMC5667929, “Combinatorial action of Grainyhead, Extradenticle and Notch in regulating Hox mediated apoptosis in Drosophila larval CNS”.
